Assay results reported in the MegaScale stability set (Tsuboyama et al. 2023).

B1: EHEE_rd4_0726 (parent)
chain: DIEITTNGEEDAKRVIKELQKRNLEYHIEVHGNQWVIKVR

Variants of: B1
Assay: folding stability dG (cDNA display proteolysis); higher = more stable
Details: PBS, room temperature

Which “folding stability dG” value does the source give for DIEIMTNGEEDAKRVIKELQKRNLEYHIEVHGNQWVIKVR [T5M] here?
The value was 2.39 kcal/mol.

With DIEIATNGEEDAKRVIKELQKRNLEYHIEVHGNQWVIKVR [T5A] as the variant, how does the “folding stability dG” value read?
Its value is 1.84 kcal/mol.

For DIEIYTNGEEDAKRVIKELQKRNLEYHIEVHGNQWVIKVR [T5Y], which “folding stability dG” value is on record?
The value was 2.91 kcal/mol.

Which “folding stability dG” value does the source give for DIEIWTNGEEDAKRVIKELQKRNLEYHIEVHGNQWVIKVR [T5W] here?
The value was 3.48 kcal/mol.

For DIEICTNGEEDAKRVIKELQKRNLEYHIEVHGNQWVIKVR [T5C], which “folding stability dG” value is on record?
Its value is 2.86 kcal/mol.

With DIEIQTNGEEDAKRVIKELQKRNLEYHIEVHGNQWVIKVR [T5Q] as the variant, how does the “folding stability dG” value read?
The value was 2 kcal/mol.

Which “folding stability dG” value does the source give for DIEIITNGEEDAKRVIKELQKRNLEYHIEVHGNQWVIKVR [T5I] here?
Its value is 3.17 kcal/mol.

For DIEIETNGEEDAKRVIKELQKRNLEYHIEVHGNQWVIKVR [T5E], which “folding stability dG” value is on record?
Its value is 1.66 kcal/mol.

For DIEIPTNGEEDAKRVIKELQKRNLEYHIEVHGNQWVIKVR [T5P], which “folding stability dG” value is on record?
Its value is 1.59 kcal/mol.

With DIEISTNGEEDAKRVIKELQKRNLEYHIEVHGNQWVIKVR [T5S] as the variant, how does the “folding stability dG” value read?
Its value is 1.96 kcal/mol.

Which “folding stability dG” value does the source give for DIEIDTNGEEDAKRVIKELQKRNLEYHIEVHGNQWVIKVR [T5D] here?
Its value is 1 kcal/mol.

For DIEINTNGEEDAKRVIKELQKRNLEYHIEVHGNQWVIKVR [T5N], which “folding stability dG” value is on record?
Its value is 1.75 kcal/mol.

For DIEIFTNGEEDAKRVIKELQKRNLEYHIEVHGNQWVIKVR [T5F], which “folding stability dG” value is on record?
Its value is 2.77 kcal/mol.

Which “folding stability dG” value does the source give for DIEILTNGEEDAKRVIKELQKRNLEYHIEVHGNQWVIKVR [T5L] here?
Its value is 2.49 kcal/mol.

For DIEIRTNGEEDAKRVIKELQKRNLEYHIEVHGNQWVIKVR [T5R], which “folding stability dG” value is on record?
The value was 2.92 kcal/mol.

For DIEIVTNGEEDAKRVIKELQKRNLEYHIEVHGNQWVIKVR [T5V], which “folding stability dG” value is on record?
Its value is 3.03 kcal/mol.

For DIEIKTNGEEDAKRVIKELQKRNLEYHIEVHGNQWVIKVR [T5K], which “folding stability dG” value is on record?
The value was 2.32 kcal/mol.

For DIEIHTNGEEDAKRVIKELQKRNLEYHIEVHGNQWVIKVR [T5H], which “folding stability dG” value is on record?
The value was 2.61 kcal/mol.

Which “folding stability dG” value does the source give for DIEIGTNGEEDAKRVIKELQKRNLEYHIEVHGNQWVIKVR [T5G] here?
Its value is 1.08 kcal/mol.

Which “folding stability dG” value does the source give for DIEITGNGEEDAKRVIKELQKRNLEYHIEVHGNQWVIKVR [T6G] here?
The value was 2.65 kcal/mol.

Which “folding stability dG” value does the source give for DIEITENGEEDAKRVIKELQKRNLEYHIEVHGNQWVIKVR [T6E] here?
Its value is 0.908 kcal/mol.

Which “folding stability dG” value does the source give for DIEITHNGEEDAKRVIKELQKRNLEYHIEVHGNQWVIKVR [T6H] here?
The value was 0.768 kcal/mol.

For DIEITFNGEEDAKRVIKELQKRNLEYHIEVHGNQWVIKVR [T6F], which “folding stability dG” value is on record?
The value was 2.32 kcal/mol.

Which “folding stability dG” value does the source give for DIEITDNGEEDAKRVIKELQKRNLEYHIEVHGNQWVIKVR [T6D] here?
Its value is 0.026 kcal/mol.

With DIEITANGEEDAKRVIKELQKRNLEYHIEVHGNQWVIKVR [T6A] as the variant, how does the “folding stability dG” value read?
The value was 2.62 kcal/mol.

For DIYITTNGEEDAKRVIKELQKRNLEYHIEVHGNQWVIKVR [E3Y], which “folding stability dG” value is on record?
Its value is 3.11 kcal/mol.

For DIFITTNGEEDAKRVIKELQKRNLEYHIEVHGNQWVIKVR [E3F], which “folding stability dG” value is on record?
Its value is 2.93 kcal/mol.

With DIDITTNGEEDAKRVIKELQKRNLEYHIEVHGNQWVIKVR [E3D] as the variant, how does the “folding stability dG” value read?
The value was 1.78 kcal/mol.

For DIVITTNGEEDAKRVIKELQKRNLEYHIEVHGNQWVIKVR [E3V], which “folding stability dG” value is on record?
Its value is 3.33 kcal/mol.

For DIMITTNGEEDAKRVIKELQKRNLEYHIEVHGNQWVIKVR [E3M], which “folding stability dG” value is on record?
The value was 2.74 kcal/mol.

With DIGITTNGEEDAKRVIKELQKRNLEYHIEVHGNQWVIKVR [E3G] as the variant, how does the “folding stability dG” value read?
Its value is 1.25 kcal/mol.

Which “folding stability dG” value does the source give for DIQITTNGEEDAKRVIKELQKRNLEYHIEVHGNQWVIKVR [E3Q] here?
Its value is 2.37 kcal/mol.

Which “folding stability dG” value does the source give for DIAITTNGEEDAKRVIKELQKRNLEYHIEVHGNQWVIKVR [E3A] here?
The value was 2.16 kcal/mol.

Which “folding stability dG” value does the source give for DIHITTNGEEDAKRVIKELQKRNLEYHIEVHGNQWVIKVR [E3H] here?
Its value is 2.31 kcal/mol.

For DILITTNGEEDAKRVIKELQKRNLEYHIEVHGNQWVIKVR [E3L], which “folding stability dG” value is on record?
The value was 2.76 kcal/mol.

With DIIITTNGEEDAKRVIKELQKRNLEYHIEVHGNQWVIKVR [E3I] as the variant, how does the “folding stability dG” value read?
Its value is 3.45 kcal/mol.

With DIWITTNGEEDAKRVIKELQKRNLEYHIEVHGNQWVIKVR [E3W] as the variant, how does the “folding stability dG” value read?
Its value is 3.35 kcal/mol.

With DIKITTNGEEDAKRVIKELQKRNLEYHIEVHGNQWVIKVR [E3K] as the variant, how does the “folding stability dG” value read?
Its value is 2.18 kcal/mol.

For DIRITTNGEEDAKRVIKELQKRNLEYHIEVHGNQWVIKVR [E3R], which “folding stability dG” value is on record?
Its value is 2.34 kcal/mol.

With DITITTNGEEDAKRVIKELQKRNLEYHIEVHGNQWVIKVR [E3T] as the variant, how does the “folding stability dG” value read?
Its value is 3.12 kcal/mol.

With DINITTNGEEDAKRVIKELQKRNLEYHIEVHGNQWVIKVR [E3N] as the variant, how does the “folding stability dG” value read?
Its value is 1.87 kcal/mol.

With DISITTNGEEDAKRVIKELQKRNLEYHIEVHGNQWVIKVR [E3S] as the variant, how does the “folding stability dG” value read?
The value was 2.5 kcal/mol.

With DIPITTNGEEDAKRVIKELQKRNLEYHIEVHGNQWVIKVR [E3P] as the variant, how does the “folding stability dG” value read?
The value was 0.973 kcal/mol.

With DYEITTNGEEDAKRVIKELQKRNLEYHIEVHGNQWVIKVR [I2Y] as the variant, how does the “folding stability dG” value read?
Its value is 3.27 kcal/mol.

With DWEITTNGEEDAKRVIKELQKRNLEYHIEVHGNQWVIKVR [I2W] as the variant, how does the “folding stability dG” value read?
Its value is 3.69 kcal/mol.

With DIEKTTNGEEDAKRVIKELQKRNLEYHIEVHGNQWVIKVR [I4K] as the variant, how does the “folding stability dG” value read?
The value was 0.22 kcal/mol.

With DIEPTTNGEEDAKRVIKELQKRNLEYHIEVHGNQWVIKVR [I4P] as the variant, how does the “folding stability dG” value read?
The value was 0.107 kcal/mol.

With DIEFTTNGEEDAKRVIKELQKRNLEYHIEVHGNQWVIKVR [I4F] as the variant, how does the “folding stability dG” value read?
Its value is 2.12 kcal/mol.

Which “folding stability dG” value does the source give for DIEETTNGEEDAKRVIKELQKRNLEYHIEVHGNQWVIKVR [I4E] here?
Its value is 0.017 kcal/mol.

For DIEWTTNGEEDAKRVIKELQKRNLEYHIEVHGNQWVIKVR [I4W], which “folding stability dG” value is on record?
Its value is 1.99 kcal/mol.

For DIEDTTNGEEDAKRVIKELQKRNLEYHIEVHGNQWVIKVR [I4D], which “folding stability dG” value is on record?
Its value is -0.582 kcal/mol.

Which “folding stability dG” value does the source give for DIETTTNGEEDAKRVIKELQKRNLEYHIEVHGNQWVIKVR [I4T] here?
Its value is 0.528 kcal/mol.

For DIENTTNGEEDAKRVIKELQKRNLEYHIEVHGNQWVIKVR [I4N], which “folding stability dG” value is on record?
The value was -0.395 kcal/mol.

With DIEMTTNGEEDAKRVIKELQKRNLEYHIEVHGNQWVIKVR [I4M] as the variant, how does the “folding stability dG” value read?
Its value is 1.23 kcal/mol.

Which “folding stability dG” value does the source give for DIEGTTNGEEDAKRVIKELQKRNLEYHIEVHGNQWVIKVR [I4G] here?
The value was -0.292 kcal/mol.

With DIERTTNGEEDAKRVIKELQKRNLEYHIEVHGNQWVIKVR [I4R] as the variant, how does the “folding stability dG” value read?
The value was 0.4 kcal/mol.

With DIEYTTNGEEDAKRVIKELQKRNLEYHIEVHGNQWVIKVR [I4Y] as the variant, how does the “folding stability dG” value read?
Its value is 2.15 kcal/mol.

Which “folding stability dG” value does the source give for DIEHTTNGEEDAKRVIKELQKRNLEYHIEVHGNQWVIKVR [I4H] here?
Its value is 0.697 kcal/mol.

For DIESTTNGEEDAKRVIKELQKRNLEYHIEVHGNQWVIKVR [I4S], which “folding stability dG” value is on record?
The value was 0.002 kcal/mol.

For DIEQTTNGEEDAKRVIKELQKRNLEYHIEVHGNQWVIKVR [I4Q], which “folding stability dG” value is on record?
Its value is 0.094 kcal/mol.

With DIEATTNGEEDAKRVIKELQKRNLEYHIEVHGNQWVIKVR [I4A] as the variant, how does the “folding stability dG” value read?
Its value is 0.165 kcal/mol.

Which “folding stability dG” value does the source give for DIELTTNGEEDAKRVIKELQKRNLEYHIEVHGNQWVIKVR [I4L] here?
Its value is 1.66 kcal/mol.

Which “folding stability dG” value does the source give for DIEVTTNGEEDAKRVIKELQKRNLEYHIEVHGNQWVIKVR [I4V] here?
Its value is 1.57 kcal/mol.
